Experimental data from patent US20120004175A1 (RESEARCH FOUNDATION OF STATE UNIVERSITY OF NEW YORK, published 2012).

Target: T1, NF-κB p65 (mouse, intestinal epithelial cells of wild-type C57BL/6J and Min mice) (mouse, UniProt Q04207 1-549)
T1 construct: Endogenous mouse protein
Test: anti-p65 immunoprecipitation of nuclear extract from mouse intestinal epithelial cells, immunoblot

T1 sequence (Q04207 whole entry): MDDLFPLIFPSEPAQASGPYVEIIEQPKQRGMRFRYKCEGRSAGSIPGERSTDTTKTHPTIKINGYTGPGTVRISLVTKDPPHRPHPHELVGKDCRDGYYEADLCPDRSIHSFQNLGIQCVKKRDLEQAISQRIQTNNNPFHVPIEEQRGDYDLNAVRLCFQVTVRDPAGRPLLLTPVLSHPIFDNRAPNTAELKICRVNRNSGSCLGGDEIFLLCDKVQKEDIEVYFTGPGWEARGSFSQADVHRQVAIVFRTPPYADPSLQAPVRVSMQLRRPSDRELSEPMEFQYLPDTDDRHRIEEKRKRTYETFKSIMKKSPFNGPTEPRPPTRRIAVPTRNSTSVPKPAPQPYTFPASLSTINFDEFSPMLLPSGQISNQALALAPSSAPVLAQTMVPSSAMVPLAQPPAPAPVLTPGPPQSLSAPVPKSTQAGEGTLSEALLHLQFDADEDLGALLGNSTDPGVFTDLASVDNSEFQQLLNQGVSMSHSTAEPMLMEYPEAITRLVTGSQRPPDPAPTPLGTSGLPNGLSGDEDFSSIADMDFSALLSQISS

binding result: binds
B1: annexin 1 (mouse, intestinal epithelial cells of wild-type C57BL/6J and Min mice) (other, UniProt P10107 2-346, looked up)
chain: AMVSEFLKQARFLENQEQEYVQAVKSYKGGPGSAVSPYPSFNVSSDVAALHKAIMVKGVDEATIIDILTKRTNAQRQQIKAAYLQENGKPLDEVLRKALTGHLEEVVLAMLKTPAQFDADELRGAMKGLGTDEDTLIEILTTRSNEQIREINRVYREELKRDLAKDITSDTSGDFRKALLALAKGDRCQDLSVNQDLADTDARALYEAGERRKGTDVNVFTTILTSRSFPHLRRVFQNYGKYSQHDMNKALDLELKGDIEKCLTTIVKCATSTPAFFAEKLYEAMKGAGTRHKALIRIMVSRSEIDMNEIKVFYQKKYGISLCQAILDETKGDYEKILVALCGGN
notes: Endogenous mouse protein; also called induced annexin 1
